“And” between values parts separate entries of the source, which are not always exact repeats. Equal entries are not always repeated. Where two headings read alike, the source gives them in different places.
B1: DH1017.IgM (antibody, V domains shown)
VH: QVQLQESGPGLVKPSQTLSLTCAVSGGSISSGDSYWSWIRQHPGKGLEWIGSIYYSGSTYYNPSLKSRVTIPIDTSKNQFSLKLSSVTAADTAVYYCARHVGDLRVNDAFDIWGQGTMVTVSS
VL: QSVLTQPPSVSAAPGQKVTISCSGSSSNIGNNFVSWYQRLPGTPPKLLIYDSDKRPSGIPDRFSGSKSGTSATLGITGLQTGDEGDYYCGTWDRSLSVVVFGGGTKLTVL
B2: DH1017.IgG (antibody, V domains shown)
VH: B1 VH
VL: B1 VL

What was measured:
[1] = target: whole Zika virus (ZIKV) virion (Zika virus); assay: whole ZIKV virion ELISA; molar conversion with IgM ~970 KDa
[2] = target: whole Zika virus (ZIKV) virion (Zika virus); assay: cell-based or functional assay
[3] = target: Dengue virus serotype 4 virion (Dengue virus serotype 4); assay: cell-based or functional assay
[4] = target: Dengue virus serotype 2 virion (Dengue virus serotype 2); assay: cell-based or functional assay
[5] = target: Dengue virus serotype 3 virion (Dengue virus serotype 3); assay: cell-based or functional assay
[6] = target: Dengue virus serotype 1 virion (Dengue virus serotype 1); assay: cell-based or functional assay
[7] = target: whole Zika virus (ZIKV) virion (Zika virus); assay: whole ZIKV virion ELISA; molar EC50 of IgM compared with IgG
[8] = target: whole Zika virus (ZIKV) virion (Zika virus); assay: cell-based or functional assay; remark: listed apart in the source
[9] = target: whole Zika virus (ZIKV) virion (Zika virus); assay: whole ZIKV virion ELISA, 5-fold dilutions from 100 ug/ml
[10] = target: whole Zika virus (ZIKV) virion (Zika virus); assay: whole ZIKV virion ELISA; molar conversion with IgG ~150 KDa

| Binder | EC50 [1] [nM] | FRNT50 [2] [ng/mL] | FRNT50 [3] [µg/mL] | FRNT50 [4] [µg/mL] | FRNT50 [5] [µg/mL] | FRNT50 [6] [µg/mL] | fold difference of molar EC50 against DH1017.IgG [7] [fold] | FRNT50 [8] | fold difference in neutralizing activity, IgM versus IgG at equal numbers of molecules [8] [fold] | EC50 [9] [µg/mL] | EC50 [10] [nM] |
| --- | --- | --- | --- | --- | --- | --- | --- | --- | --- | --- | --- |
| B1 | 0.474 | 6.57 | > 5 | > 5 | > 5 | > 5 | 6 | 24.7 ng/ml and 25.5 pM | 40 | 0.046 |  |
| B2 |  |  |  |  |  |  |  |  |  | 0.045 | 3 |
